The source of these data is patent publication US10933119B2, “Aortopathy” (University of Leicester, priority 2015, dated 2021).

Series [1] relates to leukocytes in peripheral blood. Kind of series: Number of leukocytes in peripheral blood after GM-CSF administration. Type of series: in vivo, mice. Set-up: Lymphocytes in peripheral blood: unit not given here. The settings on record: for Lymphocytes in peripheral blood / Monocytes in peripheral blood / Neutrophils in peripheral blood: wild type mice. How it is done:
(§1) To induce aortic dissection/intramural hematoma, peri-aortic application of CaCl2 was done to the abdominal aorta, followed by two-week infusion of AngII (2000 ng kg−1 min−1) (40). In detail, mice were anesthetized and underwent laparotomy at 10- to 13-weeks of age. The abdominal aorta between the renal arteries and bifurcation of the iliac arteries was isolated from the surrounding retroperitoneal structure, and 0.5 M CaCl2 was applied to the external surface of the infrarenal aorta. NaCl (0.9%) was substituted for CaCl2 in sham control mice. The aorta was rinsed with 0.9% sterile saline after 15 min and the incision was closed.
(§2) Wild-type mice were injected intraperitoneally with 110 mg kg−1 of clodronate liposomes or equal volume of PBS liposomes 2 days prior and 7 days after induction of aortic dissection. Neutralizing antibody against GM-CSF (300 μg, R&D systems) or control anti-rat IgG antibody (Equitech Bio) was administered every other day by intraperitoneal injection. Recombinant murine GM-CSF (10, 50, 100 μg kg−1 day−1, PeproTech) was administered for two weeks or four weeks after induction of aortic dissection.
(§3) Aortas were minced into 3- to 4-mm pieces and placed in 1 ml digestion solution containing collagenase type II (1.25 mg ml−1, Worthington) and porcine pancreatic elastase (50 μg ml−1, Worthington) in base solution of Accumax (Innovative Cell Technologies). Aortic tissue was digested at room temperature with agitation for 1 h. After digestion, cells were washed in FACS buffer (5% FCS in PBS) at 2000 rpm for 5 min. Aortic macrophages were isolated using CD11b microbeads according to the manufacturer's instructions (Miltenyi Biotec). Spleen was homogenized and passed through a cell strainer to obtain single-cell suspensions. Bone marrow-derived cells were taken from the femur and tibia of 5- to 6-week-old mice. Blood was collected in heparin-coated vials and then 1.2% dextran was added for 45 min at room temperature. Counting of peripheral leukocytes was done by automated hematology analyzer (XT-2000i, Sysmex). Neutrophils were isolated from bone marrow using a neurophil isolation kit according to the manufacturer's instructions (Miltenyi Biotec). From single-cell suspensions of spleen, bone marrow and blood, erythrocytes were lysed using ACK lysis buffer for 5, 3 and 2 min on ice, respectively. Cells were centrifuged at 2000 rpm for 5 min to remove the ACK lysis buffer, then the single-cell suspensions were resuspended and washed in FACS buffer, followed by centrifugation at 2000 rpm for 5 min.

The subject of series [2] is leukocytes in peripheral blood. Kind of series: Number of leukocytes in peripheral blood after GM-CSF blockade by neutralizing antibody. Conditions: KLF6fl/fl;LysM Cre mice, CaCl2 + AngII. Type of series: in vivo. More on the design: Lymphocytes in peripheral blood: unit not given here. How it is done:
as §1, §2
as §3, with “Neutrophils were isolated from bone marrow using a neurophil isolation kit according to the manufacturer's instructions (Miltenyi Biotec). From single-cell suspensions of spleen, bone marrow and blood, erythrocytes were lysed using ACK lysis buffer for 5, 3 and 2 min on ice, respectively. Cells were centrifuged at 2000 rpm for 5 min to remove the ACK lysis buffer, then the single-cell suspensions were resuspended and washed in FACS buffer, followed by centrifugation at 2000 rpm for 5 min.” left out

Series [3] deals with wild-type mice. Kind of series: Murine aortic dissection/intramural hematoma model with recombinant GM-CSF administration. Type of series: in vivo. How it is done: as §1, §2
Aortas from mice were embedded in paraffin then 5-μm-thick serial sections were prepared for Elastic Von Gienson (EVG) and hematoxylin/eosin (HE) staining. Digital images of EVG-stained aortas with reference scale were used for absolute measurement of diameter. Human aortic tissue was obtained from patients undergoing surgical aortic repair with informed consent under a protocol approved by the University of Tokyo hospital research ethics committee. Paraffin-embedded sections were taken from the aorta for EVG staining and immunohistochemistry. […]

The nature of series [4]: Plasma GM-CSF concentration (ELISA) after recombinant GM-CSF infusion. Type of series: in vivo. The settings on record: wild-type mice. The procedure: as §2
Plasma levels of IL-6, MCP-1 and GM-CSF in mice or in humans with or without aortic dissection/intramural hematoma were assayed with commercially available quantikine ELISA kits (R&D systems) according to the manufacturer's instructions. Sera of healthy volunteers and of patients with aortic aneurysm, coronary artery disease or with aortic dissection were obtained with informed consent under a protocol approved by the University of Tokyo hospital research ethics committee.
(In an ELISA, binding on a coated surface is turned into a signal by an enzyme label.)

B1: GM-CSF: Recombinant murine GM-CSF (PeproTech), granulocyte macrophage colony-stimulating factor (protein, UniProt P01587 18-141, looked up)
Granulocyte-macrophage …: APTRSPITVTRPWKHVEAIKEALNLLDDMPVTLNEEVEVVSNEFSFKKLTCVQTRLKIFEQGLRGNFTKLKGALNMTASYYQTYCPPTPETDCETQVTTYADFIDSLKTFLTDIPFECKKPGQK
B1: the “number of neutrophils in peripheral blood” value in series [1] (14 days of GM-CSF administration) was “no difference”; in series [1] (GM-CSF administration, early phase) it was “markedly increased”. Besides, in series [1] (GM-CSF administration, early phase (5 days) or developed phase (14 days)), the “number of circulating lymphocytes” value is recorded as “did not change”. The “Lymphocytes in peripheral blood” value in series [1] (CaCl2 + AngII, 5 days) was found to be 1803.3 ± 124.0; in series [1] (CaCl2 + AngII, 14 days), 1667.2 ± 371.3; in series [1] (Sham, 5 days) it was 3150.0 ± 234.5; in series [1] (Sham, 14 days) it was 3052.0 ± 420.3; in series [2], 1843.3 ± 311.1. Moreover, the Monocytes in peripheral blood is 387 ± 112 cells/µL in series [1] (CaCl2 + AngII, 5 days); 310 ± 45.9 cells/µL in series [1] (CaCl2 + AngII, 14 days); 353 ± 103 cells/µL in series [1] (Sham, 5 days); 295 ± 66.2 cells/µL in series [1] (Sham, 14 days); 82.5 ± 12.5 cells/µL in series [2]. The Neutrophils in peripheral blood in series [1] (CaCl2 + AngII, 5 days) amounted to 1690 ± 147 cells/µL; in series [1] (CaCl2 + AngII, 14 days), 1050 ± 259 cells/µL; in series [1] (Sham, 5 days), 2540 ± 454 cells/µL; in series [1] (Sham, 14 days) it was 976 ± 117 cells/µL; in series [2], 786 ± 118 cells/µL. Also, the aortic dissection/intramural hematoma entry in series [3] (wild-type mice subjected to aortic inflammation (CaCl2+AngII) plus GM-CSF) is reported as “caused”; in series [3] (wild-type mice, administration of GM-CSF alone), “did not develop”. Further, the death of mice entry in series [3] (wild-type mice, GM-CSF with CaCl2+AngII) is recorded as “died from aortic rupture”. Besides, in series [4] (GM-CSF alone, 2 weeks infusion), the “increased circulating levels of GM-CSF” value was “at least 180.9 fold”. The “circulating levels of GM-CSF” value in series [4] (combination of GM-CSF with CaCl2 + AngII compared to each alone) is recorded as “markedly elevated”.
